Reference: patent US7265091B2, “Methods and compositions for treating male erectile dysfunction” (The Regents of the University of California, priority 2000, dated 2007)

Assays:
[1] = test system: penile smooth muscle (alpha actin); assay: Alpha-smooth muscle actin immunohistochemistry of rat penis with image analysis; type: in vivo; conditions: castrated rats
Description: Frozen sections were cut at 10 microns, adhered to charged slides, air dried for 15 minutes then rehydrated with 0.05M PBS for 5 minutes. […] The serum solution was drained and then sections were incubated for 60 minutes with mouse monoclonal anti-alpha-smooth muscle actin (Sigma, St. Louis, Mo.) at a dilution of 1:4000 in PBS. […] Immunochemistry was performed in penile tissues from 4 rats randomly chosen from each subgroup.
Cross-sectional micrographs of the rat penis at the proximal shaft were examined after immunohistochemistry for alpha actin. Alpha actin, a marker for penile smooth muscle, stains brown and can be seen surrounding the sinusoidal spaces. […] Computerized image analysis with Adobe Photoshop was used to quantify the area of immunostaining by counting the number of digitized pixels corresponding to the area of brown staining, thereby providing some numerical comparison of the quantity of smooth muscle in each specimen.

[2] = Serum testosterone radioimmunoassay; type: in vivo, rat; conditions: castrated rats given subcutaneous testosterone implants
Description: (§1) Following castration, testosterone- or saline-filled silastic implants were placed in the subcutaneous tissue of the anterior abdominal wall, as previously described.^17 Implants were prepared using sterile silastic tubing (Dow Coming, Midland, Mich. #602-265, inner diameter 0.062″) that was filled with testosterone propionate powder (Sigma Chemical, St. Louis, Mo.) with the aid of wall suction.

[3] = test system: venogenic erectile dysfunction in castrated rats; assay: Pharmacologic cavernosometry, prevention trial in castrated rats (Experiment 2); type: in vivo, rat; conditions: castrated rats treated at castration, cavernosometry 9 weeks after castration
From the text: For the prevention trial of VEGF in rats with venogenic erectile ED, adult males were castrated and immediately treated with hormone, intracavernosal VEGF. […] Control animals received an silastic implant containing saline (n=3), an intracavernous injection of normal saline (n=3) or an […] transfection vector expressing lacZ reporter gene without the VEGF gene (AAV-LacZ, n=11).
A 1.5 cm oblique incision was made in the lower abdominal skin extending from the midline just above the penile hilum to below the level of the glans about 1 cm lateral to the midline. The skin was sharply dissected from the anterior surface of the penis and then the penis was retracted anteriorly using a towel clamp placed around it atraumatically with the foreskin left intact. Using blunt dissection the penile base and crura were exposed. The ischiocavernosus muscles were sharply dissected off the anterior surface of the crus until the white of the tunica albuginea of the corpora cavernosa was identified. The crus was then gently cannulated using a 23 gage butterfly needle, and saline flush with a visual erectile response was used to confirm that the needle tip was truly intracavernosal. The intracavernosal injections were then administered with either VEGF protein (Calbiochem, La Jolla, Calif. #676472) at the dosage 4 ug/injection (in 0.1 cc PBS with 0.1% BSA), AAV-VEGF (10^10 viral particles in 0.1 cc NS), AAV-LacZ (10^10 viral particles in 0.1 cc NS), or 0.1 ml NS alone. The AAV-VEGF and AAV-LacZ constructs were a generous gift from Dr. Yuet W. Kan (Howard Hughes Medical Research Institute, San Francisco, Calif.).^19,20 Following injection, the needle was left in place for 5 minutes and then removed to allow the medication to diffuse throughout the cavernosal space. Immediately thereafter, pinpoint electrocautery was applied to the needle hole for hemostasis and then the wound was closed and the animal recovered as above.
as §1
To perform pharmacologic cavemosometry, both the right and left crura were separately cannulated using 23 gauge butterfly needles as described above. One cannula was flushed with sterile heparinized saline (100 U heparin/ml NS) and attached to a pressure detector for continuous intracorporal pressure (ICP) monitoring as previously described.^11 The contralateral cannula was attached to an infusion pump (Harvard Pump, Southwick, Mass. #55-2222), filled with sterile dilute heparinized saline (20 U heparin/ml NS). The baseline ICP was recorded (flaccid ICP) and then a dose of papavarine (1 mg in 0.1 cc NS) was administered through the infusion cannula. Five minutes was allowed for the papavarine to diffuse throughout the corpora and then the infusion cannula was flushed with heparinized saline and the pressure monitor cannula vented to normalize ICP after flushing. After 5 minutes more, the ICP was again recorded (ICP after papavarine) and the infusion started. An infusion rate of 0.05 ml/min was started and increased (by 0.05 ml/min every 10 seconds) until the ICP started to rise. Subsequent increases in inflow rate were made only after the ICP reached a plateau pressure. By slowly adjusting the inflow rate, an intracorporal pressure of 100 cm H2O (erectile pressure) was reached and the infusion rate required to maintain this pressure recorded (the maintenance rate). After this pressure was steady for 20 seconds, the infusion was terminated and the change in ICP over the subsequent 60 seconds was recorded (the drop rate).

[4] = test system: dorsal nerve, intracavernous smooth muscle cells and endothelial cells; assay: Transmission electron microscopy of penile tissue (Example 2); type: in vivo, rat; conditions: castrated rats, testosterone replacement
From the text: Thick sections were cut and stained with toluidine blue to select specific areas for thin sectioning. Thin sections were cut, stained with both uranyl acetate and Reynold's Lead, and examined under the Phillips Tecnai 10 transmission electron microscope. Penile tissues from 4 randomly chosen rats in each subgroups were subjected to electron microscopic examinations.

[5] = test system: major pelvic ganglia (MPG); assay: Nerve fiber outgrowth from cultured major pelvic ganglia; type: cell-based, rat; design: Average fiber length / FIBER LENGTH (average lengths of the growing fibers): unit not given here
Description: Each freshly isolated MPG was cut into 8 pieces of approximately equal size and each piece was then attached to a Matrigel-coated coverslip. The MPG pieces were cultured in serum-free medium supplemented with phosphate-buffered saline (PBS, control), 50 ng/ml of vascular endothelial growth factor (VEGF), 20 ng/ml of brain-derived neurotrophic factor (BDNF), or VEGF+BDNF. After 2 days of incubation, the ganglial tissues with their outgrowing nerve fibers were stained for the expression of NADPH diaphorase and acetylcholinesterase (AchE).
We have been using several experimental systems to test the efficacy of combination growth factor therapies for impotence. One system employs cultured rat major pelvic ganglia (MPG) that are known to innervate all urogenital organs, including the penis. We discovered that the cultured MPG are able to sprout new nerve fibers (nerve regeneration) from the axonal ends during the first 3 days of culture, especially when treated with VEGF, BDNF, NT-3, or NT-4.

[6] = test system: blood vessels and nerve fibers in the penis; assay: Penile tissue histology, nNOS staining and electron microscopy (Example 9); type: in vivo, rat; conditions: 3 months after bilateral cavernous nerve freezing
Description: (§2) Three months old Sprague-Dawley rats (N=30) were used: 6 underwent a sham operation; 24 underwent bilateral cavernous nerve freezing and then randomly divided into four groups of 6 each. The four groups of rats received intracavernous injection of one of the following: 1) phosphate buffered saline (PBS), 2) VEGF protein (4 μg), 3) adeno-associated virus (AAV)-BDNF, and 4). VEGF+AAV-BDNF. Erectile function was assessed by cavernous nerve electrostimulation 3 months later and samples of penile tissue were obtained for electron microscopy and immunohistochemical studies.

[7] = test system: Animal Model for Neurogenic Impotence; assay: Maximal intracavernous pressure on electrostimulation after bilateral cavernous nerve freezing (Example 3); type: in vivo, rat; conditions: 8 weeks after bilateral cavernous nerve freezing
From the text: Male Sprague-Dawley rats (N=34; age, 3 months; weight, 350 to 400 gm.) were divided into two groups: sham (N=10) and experimental (N=24). The rats in the sham group underwent periprostatic dissection and identification of bilateral cavernous nerves without other manipulation; those in the experimental groups underwent bilateral cavernous nerve freezing. Several minutes after surgery, half of the experimental animals (LacZ group, N=12) received intracavernous AAV-LacZ injection, and the remainder (BDNF group, N=12) received AAV-BDNF. Half of the rats in each group were sacrificed at week 4 and the rest at week 8 for collection of penile tissue. In all animals, erectile function was assessed by electrostimulation of the cavernous nerves before sacrifice.
Under intraperitoneal pentobarbital sodium anesthesia (50 mg./kg.), each animal was placed on a heating pad to maintain its body temperature at 37° C. […]
At weeks 4 and 8 postoperatively, rats in each group were re-explored for direct electrostimulation of the cavernous nerves before tissue collection. […] Each cavernous nerve was stimulated and intracavernous pressures were measured and recorded with a Macintosh computer programmed with LabVIEW 4.0 software (National Instruments, Austin, Tex.). The pressure for each animal was determined by the mean of both sides.

[8] = test system: NADPH diaphorase-positive nerve fibers and neurons; assay: NADPH diaphorase staining of penile tissue and major pelvic ganglia; type: in vivo, rat
Description: Sections were incubated with 0.1 mM. NADPH, 0.2 mM. nitroblue tetrazolium, 0.2% Triton X-100 in 0.1 M. PO4, pH 8.0, for 60 min. at room temperature. The reaction was terminated by washing in buffer. Slides were then coverslipped with buffered glycerin as the mounting medium.^13
The presence of NADPH diaphorase-positive nerves was evidenced as a blue stain in the major pelvic ganglia, dorsal nerves and cavernous tissue, and the staining pattern was assessed by counting the number of positive neurons in 4 random fields (magnification 400×). The percentage of darkly and lightly stained cells in the major pelvic ganglia was calculated by dividing the number of these cells by the total number of positive cells.

[9] = test system: cavernous nerve injury in rats; assay: Maximal intracavernous pressure after bilateral cavernous nerve freezing (Example 9, VENT); type: in vivo, rat; conditions: 3 months after bilateral cavernous nerve freezing, intracavernous injection
Description: as §2

[10] = test system: Erectile Dysfunction Induced by Hypercholesterolemia in a Rat Model; assay: Erectile function in rats fed a high cholesterol diet (Example 5); type: in vivo; conditions: 6 months cholesterol diet, 4 months after intracavernous treatment
Description: Twenty-one Sprague-Dawley rats were used. All rats were fed a 2.5% cholesterol diet with added lard starting at 2 weeks of age for 6 months. The rats were divided into three groups. All groups after two months of a high cholesterol diet underwent serum evaluation of cholesterol and intracavernous injection of saline or treatment. Group 1, the control group, received intracavernous injection of saline, group 2, the VEGF group, received intracavernous injection of 4 ug of VEGF, and group 3, the AAV-BDNF group received 15 ug of BDNF. After six months of cholesterol diet and 4 months of treatment, all rats were subjected to cavernous nerve electrostimulation, cavernosometry with intracavernous papaverine injection, and infusion cavernosometry with heparinized saline to measure erectile function.

[11] = 50 ng/ml VEGF, 20 ng/ml BDNF, 2 days of incubation

With `CCC(=O)O[C@H]1CC[C@H]2[C@@H]3CCC4=CC(=O)CC[C@]4(C)[C@H]3CC[C@]12C` [Testosterone, testosterone propionate, reference compound] the “quantity of penile smooth muscle, qualitative” value [1] was “returns to normal morphology”, the serum testosterone titer [2] was “in the normal range” and the “Drop Rate in 1 min.” value [3] was 11.7(+/−16) cm H2O. The “Flaccid ICP” value [3] was 28.9 cm H2O, the “ICP After Papavarine” value [3] was 87.7(+/−26) cm H2O and the “Maintenance Rate” value [3] was 0.09(+/−0.1) ml/min. The “nerve fibers and myelin sheath appearance” value [4] was “appeared similar to the sham group”.

B1: NT-4: neurotrophin-4 (protein, UniProt P34130 81-210, looked up)
Neurotrophin-4: GVSETAPASRRGELAVCDAVSGWVTDRRTAVDLRGREVEVLGEVPAAGGSPLRQYFFETRCKADNAEEGGPGAGGGGCRGVDRRHWVSECKAKQSYVRALTADAQGRVGWRWIRIDTACVCTLLSRTGRA
For B1, the “FIBER LENGTH (average lengths of the growing fibers)” value ([5]; 48 hours after culturing) was 81.

B2: BDNF: brain-derived neurotrophic factor added to MPG culture medium (Examples 7, 8) (protein, UniProt P23560 19-247, looked up)
Neurotrophic factor BDNF …: APMKEANIRGQGGLAYPGVRTHGTLESVNGPKAGSRGLTSLADTFEHVIEELLDEDQKVRPNEENNKDADLYTSRVMLSSQVPLEPPLLFLLEEYKNYLDAANMSMRVRRHSDPARRGELSVCDSISEWVTAADKKTAVDMSGGTVTVLEKVPVSKGQLKQYFYETKCNPMGYTKEGCRGIDKRHWNSQCRTTQSYVRALTMDSKKRIGWRFIRIDTSCVCTLTIKRGR
In the case of B2, the AchE staining intensity [5, 11] is reported as 1,102±211 IDV, the NADPH staining intensity [5, 11] is reported as 9,376±111 IDV and the “nNOS positive nerve fibers in the dorsal nerves compared to PBS group” value [6] is reported as “increased number”. For the same molecule, the “Maximal intracavernous Pressure In Response to Electrostimulation” value [7] was 61.3 ± 12.5 cm H2O, the “NADPH Diaphorase-positive Nerve Fibers, Cavernous Tissue” value ([8]; 4 Weeks) was 45.5 ± 10.5 and the “NADPH Diaphorase-positive Nerve Fibers, Dorsal Nerve” value ([8]; 4 Weeks) was 65.5 ± 15.5. The “NADPH Diaphorase-positive Neurons in the Major Pelvic Ganglion, % Dark Stain” value ([8]; 4 Weeks) was 62.1 ± 13.1 %, the “NADPH Diaphorase-positive Neurons in the Major Pelvic Ganglion, % Light Stain” value ([8]; 4 Weeks) was 38.6 ± 11.8% and the “NADPH Diaphorase-positive Neurons in the Major Pelvic Ganglion, Dark Stain” value ([8]; 4 Weeks) was 61.8 ± 23.7. For the same molecule, the “NADPH Diaphorase-positive Neurons in the Major Pelvic Ganglion, Light Stain” value ([8]; 4 Weeks) was 33.8 ± 9, the “NADPH Diaphorase-positive Neurons in the Major Pelvic Ganglion, Total” value ([8]; 4 Weeks) was 95.7 ± 22.4 and the “NADPH Diaphorase-positive Nerve Fibers, Cavernous Tissue” value ([8]; 8 Weeks) was 66.1 ± 15.2. The “NADPH Diaphorase-positive Nerve Fibers, Dorsal Nerve” value ([8]; 8 Weeks) was 86.4 ± 12.2, the “NADPH Diaphorase-positive Neurons in the Major Pelvic Ganglion, % Dark Stain” value ([8]; 8 Weeks) was 64.3 ± 10.7 % and the “NADPH Diaphorase-positive Neurons in the Major Pelvic Ganglion, % Light Stain” value ([8]; 8 Weeks) was 35.6 ± 10.7%. For the same molecule, the “NADPH Diaphorase-positive Neurons in the Major Pelvic Ganglion, Dark Stain” value ([8]; 8 Weeks) was 69.4 ± 21.1, the “NADPH Diaphorase-positive Neurons in the Major Pelvic Ganglion, Light Stain” value ([8]; 8 Weeks) was 38.4 ± 14 and the “NADPH Diaphorase-positive Neurons in the Major Pelvic Ganglion, Total” value ([8]; 8 Weeks) was 107.8 ± 23.58. For the same molecule, the “maximal intracavernous pressure (MICP), mean±SEM” value [9] was 69.75±8.54 cm H2O and the “sustained intracavernous pressures during the pharmacologic erection phase of cavernosometry, vs high cholesterol controls” value [10] was “significantly higher”.
